Reference: the DeepSol protein solubility set

Assay: soluble on expression in E. coli; label from the status in PepcDB or PDB records

| Sequence | soluble on expression in E. coli |
| --- | --- |
| MASMTGGQQMGRGMAGPEIVKLKKILREKAVPPGTEVPLDVMRKGMEKVAFKAADDIQVEQVTVAGCAAEWVRAPGCQAGKAILYLHGGGYVMGSINTHRSMVGEISRASQAAALLLDYRLAPEHPFPAAVEDGVAAYRWLLDQGFKPQHLSISGDSAGGGLVLAVLVSARDQGLPMPASAIPISPWADMTCTNDSFKTRAEADPMVAPGGINKMAARYLNGADAKHPYASPNFANLKGLPPLLIHVGRDEVLLDDSIKLDAKAKADGVKSTLEIWDDMIHVWHAFHPMLPEGKQAIVRVGEFMREQWAALAAALEHHHHHH | soluble |
| MASNQIEGAVVGIRVNDGIAAAPVVLFTHEMPAVPERDFQSEQGEIERVKRAIGVVVQHLQEQAKQPKGEIFSAHSMMLSDPELWASVESRIQTGMIAEQAWIESLQTLADEFRQAESQYMREREADVHDIARQVMVEMTGVTPNAIDIQEPSILLARDLMPSDVAGLDKSKVLGICLSEGGKTSHSAILARAMGIPAMVKAQGCLDAVRAGQVVTIDGFRGHLWFSPSDAIQQELEAQQIEWQSTRQSALASAQQA | not soluble |
| MASRKTVNRRQRPQRATSNVFAMFDQAQIQEFKEAFNMIDQNRDGFIDQEDLKDMFASLGKEVTEQFIDSMINEAPGAQPINFTMFLTLFGEKLTGTDPEEVIRNAFQCFDEDNSGKLNEEHLRELLTTMGERYSEEQVDELFRDAPIKGGQFDYVEFTRMLKHGTKDKDEA | not soluble |
| MASSMRSLFSDHGKYVESFRRFLNHSTEHQCMQEFMDKKLPGIIGRIGDTKSEIKILSIGGGAGEIDLQILSKVQAQYPGVCINNEVVEPSAEQIAKYKELVAKTSNLENVKFAWHKETSSEYQSRMLEKKELQKWDFIHMIQMLYYVKDIPATLKFFHSLLGTNAKMLIIVVSGSSGWDKLWKKYGSRFPQDDLCQYITSDDLTQMLDNLGLKYECYDLLSTMDISDCFIDGNENGDLLWDFLTETCNFNATAPPDLRAELGKDLQEPEFSAKKEGKVLFNNTLSFIVIEA | soluble |
| MASTPRIVIIGAGIVGTNLADELVTRGWNNITVLDQGPLNMPGGSTSHAPGLVFQTNPSKTMASFAKYTVEKLLSLTEDGVSCFNQVGGLEVATTETRLADLKRKLGYAAAWGIEGRLLSPAECQELYPLLDGENILGGLHVPSDGLASAARAVQLLIKRTESAGVTYRGSTTVTGIEQSGGRVTGVQTADGVIPADIVVSCAGFWGAKIGAMIGMAVPLLPLAHQYVKTTPVPAQQGRNDQPNGARLPILRHQDQDLYYREHGDRYGIGSYAHRPMPVDVDTLGAYAPETVSEHHMPSRLDFTLEDFLPAWEATKQLLPALADSEIEDGFNGIFSFTPDGGPLLGESKELDGFYVAEAVWVTHSAGVAKAMAELLTTGRSETDLGECDITRFEDVQLTPEYVSETSQQNFVEIYDVLHPLQPRLSPRNLRVSPFHARHKELGAFFLEAGGWERPYWFEANAALLKEMPAEWLPPARDAWSGMFSSPIAAAEAWKTRTAVAMYDMTPLKRLEVSGPGALKLLQELTTADLAKKPGAVTYTLLLDHAGGVRSDITVARLSEDTFQLGANGNIDTAYFERAARHQTQSGSATDWVQVRDTTGGTCCIGLWGPLARDLVSKVSDDDFTNDGLKYFRAKNVVIGGIPVTAMRLSYVGELGWELYTSADNGQRLWDALWQAGQPFGVIAAGRAAFSSLRLEKGYRSWGTDMTTEHDPFEAGLGFAVKMAKESFIGKGALEGRTEEASARRLRCLTIDDGRSIVLGKEPVFYKEQAVGYVTSAAYGYTVAKPIAYSYLPGTVSVGDSVDIEYFGRRITATVTEDPLYDPKMTRLRG | soluble |
| MATAAASVVSSETGDLRAYMAANPAAVIEEVAKQWNVSPHAVIAALPDGMARLGPGDGFVAAMNDIATWGEVTLIVHTEDAIFEFTGEVPRGEISRGYFNLMQPKGLHGHLRHDRCGALAFVERPFMGKASAFVAFLNRDGGIMFKVFVGRDANRELRADQLARFHALAKQFSEEHSALEHHHHHH | not soluble |
| MATEIDINRIQKDIFIEHKGEPYRVLDYEHVKPGKGQAFVRVKAKNMLTGNVTELTFKASDRIPLADFEQVYATYSYNDGENYYFMNTQTYDMIAVPKEKIEEEAKFLKEGMEVIVFLYKGQPIGIELPKHVELQVVETEPAFKGDTQAGGTKPAKLETGAVIQVPFFVKEGDIVKVDTRTGSYVERVKEAK | soluble |
| MATEVTFFDELKIDNKVDIIGNNVRGELPNIWLQYGQFKLKASGGDGTYSWYSENTSIATVDASGKVTLNGKGSVVIKATSGDKQTVSYTIKAPSYMIKVDKQAYYADAMSICKNLLPSTQTVLSDIYDSWGAANKYSHYSSMNSITAWIKQTSSEQRSGVSSTYNLITQNPLPGVNVNTPNVYAVCVE | soluble |
| MATFESSLKPRLIYVFAIADARHEGSLKIGETTLNDDVGSASTEPNSEVLNKAAKARIDQYTKTAGIGYELLYTELTIYFSGGRVCSFNDKQVHSVLERSGVKRKSFAGATEWYSCDLATVKRAISAIKEGKDSLGASEVTLSDNPIILRPEQKEAIERTLKQFRKGNKMLWNAKMRFGKTLCALRVAKEMEAVRTIIITHRPVVDASWFEDFGKTFYDRPEWHYGSRSKGESFASLEKLASQGKKCVYFASMQDMRGSKDVGGKFDKNNEVFSTSWDLVIVDEAHEGTQTELGKAVLGQLMGKDTKALHLSGTPYNLFDQHKEEEVFTWDYVMEQQAKIDWEINHLGDTNPYASLPAIHIYTYDLGRLISEYSDEEKAFNFREFFRTREDGSFVHEGDIDRFLSLLCREDEEALYPYSNEHFRQIFRHTLWILPGVRAAKALSKKLSKHPIFGLFKVANVAGDGDDEEEESRDALELVNQAIGKDPDETYTITLSCGRLTTGVSIKP | not soluble |
| MATIDSMNKDTTRLSDGPDWTFDLLDVYLAEIDRVAKLYRLDTYPHQIEVITSEQMMDAYSSVGMPINYPHWSFGKKFIETERLYKHGQQGLAYEIVINSNPCIAYLMEENTITMQALVMAHACYGHNSFFKNNYLFRSWTDASSIVDYLIFARKYITECEERYGVDEVERLLDSCHALMNYGVDRYKRPQKISLQEEKARQKSREEYLQSQVNMLWRTLPKREEEKTVAEARRYPSEPQENLLYFMEKNAPLLESWQREILRIVRKVSQYFYPQKQTQVMNEGWATFWHYTILNHLYDEGKVTERFMLEFLHSHTNVVFQPPYNSPWYSGINPYALGFAMFQDIKRICQSPTEEDKYWFPDIAGSDWLETLHFAMRDFKDESFISQFLSPKVMRDFRFFTVLDDDRHNYLEISAIHNEEGYREIRNRLSSQYNLSNLEPNIQIWNVDLRGDRSLTLRYIPHNRAPLDRGRKEVLKHVHRLWGFDVMLEQQNEDGSVELLERCPPRMGNL | not soluble |
| MATIGTFKKSGNEFSGEIVTLSVQAKGVRIVPESNRSGDNAPSHRVYVGRAEIGAAWSKTSNEGREYLGLKLDDPSFTAPIYANLFDDEEGDTFSLIWSRAAKRNGD | not soluble |
| MATIHPPAYLLDQAKRRFTPSFNNFPGMSLVEHMLLNTKFPEKKLAEPPPGSGLKPVVGDAGLPILGHMIEMLRGGPDYLMFLYKTKGPVVFGDSAVLPGVAALGPDAAQVIYSNRNKDYSQQGWVPVIGPFFHRGLMLLDFEEHMFHRRIMQEAFVRSRLAGYLEQMDRVVSRVVADDWVVNDARFLVYPAMKALTLDIASMVFMGHEPGTDHELVTKVNKAFTITTRAGNAVIRTSVPPFTWWRGLRARELLENYFTARVKERREASGNDLLTVLCQTEDDDGNRFSDADIVNHMIFLMMAAHDTSTSTATTMAYQLAAHPEWQQRCRDESDRHGDGPLDIESLEQLESLDLVMNESIRLVTPVQWAMRQTVRDTELLGYYLPKGTNVIAYPGMNHRLPEIWTDPLTFDPERFTEPRNEHKRHRYAFTPFGGGVHKCIGMVFDQLEIKTILHRLLRRYRLELSRPDYQPRWDYSAMPIPMDGMPIVLRPR | not soluble |
| MATKTKTTEAPVLPLNQILAGDCIETMRSLPECSVDLIFADPPYNLQLRGDLHRPDNSRVDAVDDHWDQFSSFSVYDQFTREWLAAARRLLKPNGAIWVIGSYHNIFRVGAALQDQGFWILNDVVWRKSNPMPNFKGKRLTNAHETLIWASKQEASKYTFNYEALKALNEGVQMRSDWVIPICTGHERLKDEQGDKAHPTQKPEALLHRVMVATTNPGDVVLDPFFGTGTTGAVAKMLGRDFIGIEREESYRRIAAERLSRVRRYDASALEVSGSKRAEPRVPFGQLVERGMLRPGEELYSMNNRHKAKVRADGTLIGNDVKGSIHQVGAALEGAPSCNGWTYWCYKREGKMIPIDILRQQIRAEMEDPRPN | not soluble |
| MATLFIADLHLQTEEPAIVAGFLRFLAVEARQADALYILGDLFEAWIGDDDPNPLHREMAVAIKSLVDSGVPCFFIHGNRDFLIGKRFARESGMILLPQEKVLDLYGRNVLIMHGDTLCTDDAGYQAFRAKVHNPWVQRLFLTLPLFIRRRIAARMRAGSKAANSSKSLDIMDVNAQTVVAEMEKHRVQWLIHGHTHRPAVHELSANDQPAFRVVLGAWHHEGSMVKVTPDNVELIAFPLLEHHHHHH | not soluble |
| MATLRIGLVSISDRASSGVYQDKGIPALEEWLTSALTTPFELETRLIPDEQAIIEQTLCELVDEMSCHLVLTTGGTGPARRDVTPDATLAVADREMPGFGEQMRQISLHFVPTAILSRQVGVIRKQALILNLPGQPKSIKETLEGVKDAEGNVVVHGIFASVPYCIQLLEGPYVETAPEVVAAFRPKSARRDVSE | soluble |
| MATMTTKSHCTFNPDYYQDVWQRFGEEEYDVVVIGGGSVGAGAGLDAAIRGLKVAVVESRDFAAGTSSRSSKMFHGGLRYLAMLDFKLVAESLHERELNMSTLAPHLVKPLKFLFPLTHHVWERVMMFGGFTLYDLMGGAKSVPMQKHYSRKGTLAMAPGLKDDAVVGSVRYFDTLVDDARHTMTVLRTAGELGADVRPSTQVVGFEKDGQRVVGAILQDTDTGEQTTIRGKVFINATGVWNDHIEKLAGGNGPFSVHASKGVHIVVPKNVFDADAAMCFVTEKSVLFVIPWGEYWIIGTTDTDWDLNRADPAPTAADINYILDEVNQRVRRPIQHSDIVGVYSGLRPLLSGKSDTTTKLSRNHAVAKVMPGLVSVAGGKYTTYRVIGKDAVDLATEDLDFRVPASESERTPILGADGYHALQNQAPRIARTFGTTEDVVEHLLGRYGSLVHEVLEPSVDKPELLEPIPGAPGYIKAEAVYAVTHEGALHVEDIVERRLRAGIEYADRGVAAAPAIAELVADYLGWDAERTAAEVTAFTDRVSAEIAAEKELTDKAANEHIVAGSAVRSYVDVSGDNLEHHHHHH | soluble |
| MATQTAVTATTVPQGSPSVTGSASQGGILNSARQFFSLAAPKVEKDKEFSFRFLTSPLRSKPAATVNADNFYMYACGSINMP | not soluble |
| MATVGGAFKDSLTQAQKDELHQIALKIVQDGKGILAADESTGTIGKRLDAINLENNETNRQKYRQLLFTTPNLNQHISGVILYEETFHQSTDKGEKFTDLLIKQGIVPGIKLDLGVVPLAGTIGEGTTQGLDKLAERAAAFKKGGCGFAKWRCVLNIGTHTPSHLGMLENANVLARYASICQANGLVPIVEPEVLCDGEHDLARAQKVTEQVLAFVYKALADHHVYLEGTLLKPNMVTPGQSSASKASHEAIGLATVTALRRGVPAAVPGITFLSGGQSELDATANLNAINSVQLGKPWKLTFSYGRALQASVLKAWGGKDENIAAAQKTLLHRSKANGDASLGKYAGEDAAGAAAESLFVAKHSY | not soluble |
